± gives the uncertainty stated by the source.
Experiment: self-splicing fitness, log relative to wild type (ln ratio); higher = more splicing; Tetrahymena group I intron in knt gene, E. coli kanamycin selection, DiMSum; sequences stand for … in CUCUCU…GGAGGGAAAAGUUAUCAGGCAUGCACCUGGUAGCUAGUCUUUAAACCAAUAGAUUGCAUCGGUUUAAAAGGCAAGACCGUCAAAUUGCGGGAAAGGGGUCAACAGCCGUUCAGUACCAAGUCUCAGGGGAAACUUUGAGAUGGCCUUGCAAAGGGUAUGGUAAUAAGCUGACGGACAUGGUCCUAACCACGCAGCCAAGUCCUAAGUCAACAGAUCUUCUGUUGAUAUGGAUGCAGUUCACAGACUAAAUGUCGGUCGGGGAAGAUGUAUUCUUCUCAUAAGAUAUAGUCGGACCUCUCCUUAAUGGGAGCUAGCGGAUGAAGUGAUGCAACACUGGAGCCGCUGGGAACUAAUUUGUAUGCGAAAGUAUAUUGAUUAGUUUUGGAGUACUCGUGGUCG
Method in brief: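 Library with all eight P1ex-region intron nucleotides randomised, intron inside the knt kanamycin-resistance gene on pET-22b(+), in E. coli BL21(DE3). Cells grew overnight at 37°C or 30°C on LB agar with or without 25 μg/mL kanamycin (plus 100 μg/mL carbenicillin, 50 μM IPTG, 0.2% rhamnose), in six replicate transformations. Pooled colonies were amplicon-sequenced on Illumina HiSeq 2500. DiMSum fitness is the error-weighted combination of wild-type-normalised replicate fold changes, kanamycin versus none.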

Sequence	self-splicing fitness (ln) (30 °C)	self-splicing fitness (ln) (37 °C)
AUUUAGCAAUAUUACGAACA	-0.709 ± 0.15	-0.537 ± 0.17
AUUUAGCAAUAUUACGAAUG	-2.39 ± 0.19	-0.72 ± 0.21
AUUUAGCAAUAUUACGAGGG		-1.34 ± 0.28
AUUUAGCAAUAUUACGAUUA	-1.4 ± 0.2	-0.561 ± 0.16
AUUUAGCAAUAUUACGCAAU	-2.53 ± 0.2	-1.86 ± 0.18
AUUUAGCAAUAUUACGCAGU	-3 ± 0.28	-2.18 ± 0.26
AUUUAGCAAUAUUACGCAUG	-1.05 ± 0.12	-0.777 ± 0.18
AUUUAGCAAUAUUACGCCAU	-0.966 ± 0.27	0.446 ± 0.24
AUUUAGCAAUAUUACGCCCA	-1.06 ± 0.26	-1.58 ± 0.27
AUUUAGCAAUAUUACGCGGG	-2.72 ± 0.19	-1.96 ± 0.16
AUUUAGCAAUAUUACGCGGU	-2.13 ± 0.29	-1.87 ± 0.44
AUUUAGCAAUAUUACGGAGU	-2.92 ± 0.27	-2.29 ± 0.27
AUUUAGCAAUAUUACGGGAU	-1.42 ± 0.11	-0.217 ± 0.14
AUUUAGCAAUAUUACGGGCG	-1.77 ± 0.12	-0.764 ± 0.12
AUUUAGCAAUAUUACGUACU	-0.21 ± 0.11	-0.13 ± 0.15
AUUUAGCAAUAUUACGUAGC	-3 ± 0.23	-1.64 ± 0.25
AUUUAGCAAUAUUACGUAUC		-2.15 ± 0.32
AUUUAGCAAUAUUACGUUUU	-3.37 ± 0.24	-2.25 ± 0.2
CAAAAGCAAUAUUACGACGU	-0.652 ± 0.066	0.0132 ± 0.08
CAAAAGCAAUAUUACGAGCU	-3.99 ± 0.21	-1.96 ± 0.13
CAAAAGCAAUAUUACGAGGG	-2.77 ± 0.14	-2.53 ± 0.21
CAAAAGCAAUAUUACGAGUC	-4.06 ± 0.24	-2.65 ± 0.25
CAAAAGCAAUAUUACGAUGC	-3.49 ± 0.19	-2.99 ± 0.32
CAAAAGCAAUAUUACGCCGU	-2.08 ± 0.16	-1.32 ± 0.18
CAAAAGCAAUAUUACGCUGU	-3.49 ± 0.25	-1.73 ± 0.18
CAAAAGCAAUAUUACGGAGA	-2.88 ± 0.28	-3.43 ± 0.3

Sequence	self-splicing fitness (ln) (30 °C)	self-splicing fitness (ln) (37 °C)
CAAAAGCAAUAUUACGGCGA	-1.16 ± 0.11	-0.502 ± 0.098
CAAAAGCAAUAUUACGGUUA	-1.72 ± 0.1	-0.514 ± 0.083
CAAAAGCAAUAUUACGGUUG	-1.66 ± 0.11	-1.17 ± 0.14
CAAAAGCAAUAUUACGUAGU	-3.12 ± 0.12	-2.76 ± 0.18
CAAAAGCAAUAUUACGUAUA	-3 ± 0.15	-2.38 ± 0.17
CAAAAGCAAUAUUACGUCGA	-2.16 ± 0.086	-1.06 ± 0.084
CAAAAGCAAUAUUACGUGCC	-2.99 ± 0.24	-1.41 ± 0.23
CAACAGCAAUAUUACGAAGC	-3.45 ± 0.13	-2.74 ± 0.15
CAACAGCAAUAUUACGAAUA	-3.74 ± 0.28	-1.83 ± 0.2
CAACAGCAAUAUUACGACAA	-3.37 ± 0.21	-2.29 ± 0.14
CAACAGCAAUAUUACGACCC	-1.31 ± 0.13	-2.62 ± 0.33
CAACAGCAAUAUUACGAGUA	-1.85 ± 0.1	-1.04 ± 0.082
CAACAGCAAUAUUACGCAAC	-3.4 ± 0.23	-2.53 ± 0.33
CAACAGCAAUAUUACGCACG	-0.598 ± 0.067	0.246 ± 0.094
CAACAGCAAUAUUACGCAUC	-3.3 ± 0.16	-2.29 ± 0.14
CAACAGCAAUAUUACGCCAC	-3.26 ± 0.37	-2.39 ± 0.31
CAACAGCAAUAUUACGCCUA	-2.08 ± 0.12	-1.31 ± 0.11
CAACAGCAAUAUUACGCGUC	-3.55 ± 0.22	-1.98 ± 0.13
CAACAGCAAUAUUACGCUGC	-3.4 ± 0.23	-2.21 ± 0.36
CAACAGCAAUAUUACGCUUA	-2.13 ± 0.12	-0.653 ± 0.09
CAACAGCAAUAUUACGGAAC	-4.2 ± 0.28	-3.48 ± 0.23
CAACAGCAAUAUUACGGCCG	0.255 ± 0.072	0.563 ± 0.1
CAACAGCAAUAUUACGGGAA	-2.48 ± 0.16	-2.04 ± 0.14
CAACAGCAAUAUUACGGGGC	-3.71 ± 0.16	-3.4 ± 0.17
CAACAGCAAUAUUACGUACU	-1.89 ± 0.076	-0.917 ± 0.097
CAACAGCAAUAUUACGUAUG	-2.88 ± 0.12	-1.35 ± 0.1

Sequence	self-splicing fitness (ln) (30 °C)	self-splicing fitness (ln) (37 °C)
CAACAGCAAUAUUACGUCCU	-2.08 ± 0.071	-1.6 ± 0.094
CAAGAGCAAUAUUACGAAGG	-2.06 ± 0.17	-0.821 ± 0.19
CAAGAGCAAUAUUACGACGG	-0.504 ± 0.087	0.00208 ± 0.14
CAAGAGCAAUAUUACGAGAG	-3.74 ± 0.16	-1.83 ± 0.13
CAAGAGCAAUAUUACGAUAA	-3.21 ± 0.22	-1.79 ± 0.18
CAAGAGCAAUAUUACGCCAC	-2.38 ± 0.36	
CAAGAGCAAUAUUACGCGAA	-3.05 ± 0.26	-2.98 ± 0.4
CAAGAGCAAUAUUACGGAUA	-2.87 ± 0.23	-2.32 ± 0.29
CAAGAGCAAUAUUACGGCAU	-3.14 ± 0.23	-2.02 ± 0.21
CAAGAGCAAUAUUACGGCCA	-2.08 ± 0.38	-2.62 ± 0.48
CAAGAGCAAUAUUACGGCGG	-0.86 ± 0.069	-0.283 ± 0.094
CAAGAGCAAUAUUACGGCUA	-3.05 ± 0.31	-1.97 ± 0.22
CAAGAGCAAUAUUACGGUGA	-3.01 ± 0.2	-1.88 ± 0.21
CAAGAGCAAUAUUACGUAAG	-0.178 ± 0.084	-0.217 ± 0.12
CAAGAGCAAUAUUACGUAUC	-3.78 ± 0.17	-2.67 ± 0.2
CAAGAGCAAUAUUACGUCAU	-4.3 ± 0.24	-3.57 ± 0.17
CAAGAGCAAUAUUACGUGGG	-3.54 ± 0.21	-2.64 ± 0.19
CAAGAGCAAUAUUACGUGUG	-2.56 ± 0.1	-1.5 ± 0.092
CAAGAGCAAUAUUACGUUAU	-4.08 ± 0.19	-2.78 ± 0.17
CAAGAGCAAUAUUACGUUCG	-1.27 ± 0.089	-0.199 ± 0.11
CAAUAGCAAUAUUACGCACA	-2.3 ± 0.12	-1.4 ± 0.12
CAAUAGCAAUAUUACGCAUA	-2.99 ± 0.18	-2.08 ± 0.18
CAAUAGCAAUAUUACGCAUG	-1.35 ± 0.091	-0.845 ± 0.11
CAAUAGCAAUAUUACGCGAU	-3.99 ± 0.23	-2.92 ± 0.29
CAAUAGCAAUAUUACGCUAG	-2.49 ± 0.15	-1.86 ± 0.19
